Laboratory results reported in US7704737B2, “Oligodendrocyte production from multipotent neural stem cells” (Stem Cell Therapeutics Inc., priority 2002, dated 2010).
“Also recorded” adds a separate entry of the source.

Tests used:
neural stem cells [1] = experiment: fate determination analysis (MBP+ and β-tubulin+ cells); format: cell-based, mouse; conditions: primary spheres generated in EGF plus factor, differentiated 5 days, FIG. 6
Experimental: To determine if the presence of GM-CSF during primary neurosphere formation impacts fate determination of neural stem cells, primary neurospheres were generated in either EGF alone, EGF plus GM-CSF, or EGF plus T3 as described in Example 3. The primary spheres were then dissociated and plated on poly-L-ornithine coated coverslips in 24-well plates at a density of 200,000 cells/well in 1 ml of MHM per well, and allowed to differentiate for 5 days. At the end the differentiation period, the cells were fixed with 4% paraformaldehyde and immunostained for the mature oligodendrocyte marker MBP, the neuronal marker β-tubulin, and Hoechst. The total number of live cells, evidenced by Hoechst stain, were counted as well as the immunostained cells.

neural stem cells [2] = experiment: rapid differentiation protocol of neural stem cells, immunostaining for O4, GalC and MBP; format: cell-based, mouse; conditions: for % positive cells, GalC / % positive cells, MBP / % positive cells, O4: 20 ng/ml factor in MHM
Experimental: To determine the effect of GM-CSF on neural stem cell differentiation, a culture of neural stein cells was prepared from mouse embryos and subjected to a rapid differentiation protocol. Embryonic Day 14 (E14) mouse ganglionic eminence was dissected and grown in media hormone mix (MHM) plus 20 ng/ml epidermal growth factor (EGF) for one week to generate primary neurospheres. The composition of MHM was as follows: • DMEM/F12 (1:1) • glucose (0.6%) • glutamine (2 mM) • sodium bicarbonate ([…]) • HEPES (5 mM) • insulin (25 μg/ml • transferrin (100 μg/ml) • progesterone (20 nM) • putrescine (60 μM) • selenium chloride (30 nM)
Primary neurospheres were then dissociated and plated on poly-L-ornithine coated coverslips in 24-well plates at a density of 200,000 cells/ml in 1 ml of MHM per well. Cells were allowed to differentiate in the absence or presence of 20 ng/ml GM-CSF (murine recombinant GM-CSF, Peprotech) in MHM or 20 ng/ml of triiodothyronine (T3, Sigma) in MHM, or in a combination of both GM-CSF and T3. T3 is a known oligodendrocyte differentiation factor, which was used to compare GM-CSF in these experiments.
After 1, 3 or 5 days, the cells were fixed with 4% paraformaldehyde. […] After staining, the numbers of O4-positive, GalC-positive and MBP-positive cells were counted. The total number of cells were determined using Hoechst staining and live nuclei morphology under 40× magnification. This experiment was performed four times, and 10 non-overlapping fields per coverslip were counted each time. Statistical analyses of the results were performed using Anova with a Tukey-Honest post-hocs analysis.

[3] = system: maturing oligodendrocytes; experiment: dying maturing oligodendrocytes (GalC+, TUNEL+ cells); format: cell-based, mouse; conditions: 1, 3 or 5 days in differentiation media, FIG. 2
Experimental: The survival effects of GM-CSF on oligodendrocytes were examined with two lines of experiments. In the first line of experiments, neural stem cells were cultured as described in Example 1 in the presence or absence of GM-CSF or T3, and were fixed after 1, 3 or 5 days of culture in differentiation media. The fixed cells were immunostained for the maturing oligodendrocyte marker GalC and TUNEL, which is a marker of dying cells. The numbers of dicing, maturing oligodendrocytes (GalC+, TUNEL+cells) were then counted and their percentage in total GalC+cells are shown in FIG. 2.

[4] = system: E14 mouse ganglionic eminence cells; experiment: primary neurosphere numbers; format: cell-based; conditions: MHM plus EGF plus factor, 20 ng/ml, 1 week, FIG. 4
Experimental: The effect of GM-CSF on primary neurosphere numbers was also examined by growing cells from E14 mouse ganglionic eminence in MHM plus EGF, MHM plus EGF plus GM-CSF, or MHM plus EGF plus T3, all at concentrations of 20 ng/ml. Thus, E14 mouse ganglionic eminence cells were dissociated and plated in 96well plates at a density of 10,000 cells/ml in 200 μl of media per well, and allowed to form primary neurospheres for a week. The number of primary spheres in each well as then counted and the aforementioned statistical analysis as performed.

[5] = system: EGF-responsive neural stem cells; experiment: secondary neurosphere numbers (self-expansion); format: cell-based, mouse; conditions: FIG. 5; for number of secondary neurospheres: factor in secondary neurosphere media, primary spheres grown in EGF; for formation of secondary spheres: factor included in the media for primary neurospheres
Experimental: Furthermore, the effect of GM-CSF on self-expansion, proliferation of secondary neurospheres derived from primary neurospheres, was also assessed. Three media were used in the preparation of primary spheres: MHM plus EGF, MHM plus EGF plus GM-CSF and MHM plus EGF plus T3. The primary, spheres were dissociated, plated in 96-well plates at a concentration of 1000 cells/well in 200μL media per well, and allowed to form secondary neurospheres for a week. The media for secondary cultures consisted of MHM plus EGF alone, MHM plus GM-CSF or T3 alone, or MHM plus EGF supplemented with GM-CSF or T3. The number of secondary spheres in each well was then counted, calculated as percentage of control (EGF to EGF).

[6] = system: differentiating neural stem cells; experiment: Survival Assay: factor added or removed at different times, MBP staining; format: cell-based, mouse; parameters: MBP + cells after 5DIV: unit not given here; conditions: for dependence of oligodendrocyte numbers on length of time the factor is present: summary of Table 2, MBP after 5 DIV
Experimental: In the second line of experiments, GM-CSF ,as given to differentiating neural stem cells at different times. Thus, neural stem cell culture was placed in differentiation media as described in Example 1, and GM-CSF was added after 24 or 48 hours, or added in the beginning but removed after 24 or 48 hours. Similarly, T3 was added or removed in the same manner in parallel experiments. The cells were fixed after 5 days in vitro and immunostained with the mature oligodendrocyte marker MBP.

[7] = system: E14 ganglionic eminence cells; experiment: total cell number of primary neural stem cell culture; format: cell-based, mouse; conditions: MHM plus EGF plus factor, 1 week, versus MHM plus EGF, FIG. 3
Experimental: To assess the effect of GM-CSF on proliferation of neural stem cells, the number of cells generated in neurosphere cultures, prepared according to Example 1, was counted when grown for 1 week in various culture media. Thus, E14 ganglionic eminence cells were grown at a density of 200,000 cells/ml in 40 ml of media for 1 week. The media were MHM plus EGF, MHM plus EGF and GM-CSF, or MHM plus EGF and T3. Spheres were then collected, dissociated and cells were counted with a hemacytometer. The cell numbers were calculated as percentages of the control (MHM plus EGF).

GM-CSF = target: T1, GM-CSF (Mus musculus, UniProt P01587); experiment: rapid differentiation protocol with GM-CSF with or without soluble GM-CSF receptor alpha; format: cell-based; conditions: 100-fold excess of sGMRa, 5 days in vitro, FIG. 1
T1 construct: purchased Peprotech
T1 sequence (P01587 18-141): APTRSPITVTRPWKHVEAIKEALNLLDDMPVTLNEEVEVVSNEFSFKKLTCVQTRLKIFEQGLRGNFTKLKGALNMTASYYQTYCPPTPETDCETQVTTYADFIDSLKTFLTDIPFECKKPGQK
Experimental: A rapid differentiation protocol was performed, as described above, in the absence or presence of GM-CSF, with or without a 100-fold excess of sGMRa. After 5 days in vitro, the cells were fixed, immunostained with the mature oligodendrocyte marker MBP and counted as previously described.

[8] = McLay et al., 1997; cited from earlier work
[9] = immature oligodendrocyte marker O4, 1 DIV
[10] = mature oligodendrocyte marker MBP, 1 DIV
[11] = maturing oligodendrocyte marker GalC, 1 DIV

N[C@@H](Cc1cc(I)c(Oc2ccc(O)c(I)c2)c(I)c1)C(=O)O [T3, triiodothyronine, reference compound]
number of mature oligodendrocytes (MBP+ cells) (neural stem cells [1]): increased
number of neurons (β-tubulin+ cells) (neural stem cells [1]): decreased
% positive cells, GalC (neural stem cells [2]; GalC, 3 DIV): 15.3 ± 1.5 %
% positive cells, GalC (neural stem cells [2]; GalC, 5 DIV): 11.1 ± 0.9 %
% positive cells, MBP (neural stem cells [2]; MBP, 3 DIV): 13.9 ± 1.1 %
% positive cells, MBP (neural stem cells [2]; MBP, 5 DIV): 17.2 ± 1.6 %
% positive cells, O4 (neural stem cells [2]; O4, 3 DIV): 35.9 ± 1.7 %
% positive cells, O4 (neural stem cells [2]; O4, 5 DIV): 19.9 ± 1.5 %
% positive cells, O4 (neural stem cells [2]; [9]): 18.2 ± 1.2 %
% positive cells, MBP (neural stem cells [2]; [10]): 1.6 ± 0.4%
% positive cells, GalC (neural stem cells [2]; [11]): 8.0 ± 0.8 %
number of dying GalC+ cells (GalC+, TUNEL+ in total GalC+ cells) [3]: only minor survival effects, if any
ability of neural stem cells to form primary neurospheres [4]: neither GM-CSF nor T3 have significant effects
number of secondary neurospheres [5]: decreased
formation of secondary spheres [5]: detrimental
MBP + cells after 5DIV ([6]; factor added after 24 hours): 14.8 ± 1.5
MBP + cells after 5DIV ([6]; factor added after 48 hours): 12.0 ± 1.1
MBP + cells after 5DIV ([6]; factor present for 5 DIV): 13.9 ± 1.1
MBP + cells after 5DIV ([6]; factor removed after 24 hours): 15.5 ± 1.1
MBP + cells after 5DIV ([6]; factor removed after 48 hours): 13.8 ± 1.1
dependence of oligodendrocyte numbers on length of time the factor is present [6]: did not chance regardless of the length of time
total cell number in the neural stem cell culture [7]: reduces

B1: sGMRa: GM-CSF receptor alpha (sGMRa), a soluble factor that binds GM-CSF (protein, UniProt P15509 23-320, looked up)
extracellular domain: EKSDLRTVAPASSLNVRFDSRTMNLSWDCQENTTFSKCFLTDKKNRVVEPRLSNNECSCTFREICLHEGVTFEVHVNTSQRGFQQKLLYPNSGREGTAAQNFSCFIYNADLMNCTWARGPTAPRDVQYFLYIRNSKRRREIRCPYYIQDSGTHVGCHLDNLSGLTSRNYFLVNGTSREIGIQFFDSLLDTKKIERFNPPSNVTVRCNTTHCLVRWKQPRTYQKLSYLDFQYQLDVHRKNTQPGTENLLINVSGDLENRYNFPSSEPRAKHSVKIRAADVRILNWSSWSEAIEFGSDDG
modifications: extracellular domain
effect of GM-CSF on MBP+ cells (GM-CSF): specifically inhibited

B2: GM-CSF: murine recombinant GM-CSF, Peprotech (protein, UniProt P01587 18-141, looked up)
Granulocyte-macrophage …: APTRSPITVTRPWKHVEAIKEALNLLDDMPVTLNEEVEVVSNEFSFKKLTCVQTRLKIFEQGLRGNFTKLKGALNMTASYYQTYCPPTPETDCETQVTTYADFIDSLKTFLTDIPFECKKPGQK
number of mature oligodendrocytes (MBP+ cells) (neural stem cells [1]): increased
number of neurons (β-tubulin+ cells) (neural stem cells [1]): decreased
% positive cells, GalC (neural stem cells [2]; GalC, 3 DIV): 7.4 ± 0.8%
% positive cells, GalC (neural stem cells [2]; GalC, 5 DIV): 7.9 ± 1.0 %
% positive cells, MBP (neural stem cells [2]; MBP, 3 DIV): 8.1 ± 0.9 %
% positive cells, MBP (neural stem cells [2]; MBP, 5 DIV): 12.2 ± 1.3 %
% positive cells, O4 (neural stem cells [2]; O4, 3 DIV): 25.7 ± 1.5%
% positive cells, O4 (neural stem cells [2]; O4, 5 DIV): 9.6 ± 1.0%
percentage of oligodendrocytes produced from neural stem cells (neural stem cells [2]; every stage of oligodendrocyte development, versus control): significantly increased; also recorded: increased by several folds
% positive cells, O4 (neural stem cells [2]; [9]): 16.6 ± 1.2 %
% positive cells, MBP (neural stem cells [2]; [10]): 1.2 ± 0.3%
% positive cells, GalC (neural stem cells [2]; [11]): 4.1 ± 0.6%
number of dying GalC+ cells (GalC+, TUNEL+ in total GalC+ cells) [3]: significantly reduced
crossing the blood-brain barrier [8]: capable of crossing the blood-brain barrier
ability of neural stem cells to form primary neurospheres [4]: neither GM-CSF nor T3 have significant effects
number of secondary neurospheres [5]: does not significantly affect
formation of secondary spheres [5]: detrimental
MBP + cells after 5DIV ([6]; factor added after 24 hours): 8.1 ± 0.9
MBP + cells after 5DIV ([6]; factor added after 48 hours): 3.9 ± 0.6
MBP + cells after 5DIV ([6]; factor present for 5 DIV): 8.0 ± 0.8
MBP + cells after 5DIV ([6]; factor removed after 24 hours): 5.4 ± 1.0
MBP + cells after 5DIV ([6]; factor removed after 48 hours): 9.7 ± 1.0
dependence of oligodendrocyte numbers on length of time the factor is present [6]: required for an extended period of time
total cell number in the neural stem cell culture [7]: slightly increased
